What was measured:
[1] = target: T1, GFP:NPH3 from transgenic Arabidopsis nph3-7 (Arabidopsis thaliana, UniProt Q9FMF5 1-746, phosphoserine at 744 upon blue light irradiation (α-pS744 antibody); dephosphorylated on prolonged irradiation or re-transfer to darkness); assay: far-Western, overlay or dot blot; anti-GFP immunoprecipitates from blue-light-treated N. benthamiana leaves (10 μmol m^-2 s^-1, 40 min) or Arabidopsis nph3-7 seedlings (1 μmol m^-2 s^-1) separated by SDS-PAGE, on nitrocellulose; overlaid with RGS(His)6-14-3-3 omega at 20 μg ml^-1 in 50 mM MOPS pH 6.5, 20% glycerol, 5 mM MgCl2, 2 mM DTT, overnight at 4 °C; anti-RGS(His)6 detection; conditions: both partners purified
T1 construct: NPH3, Arabidopsis thaliana; cloned into pH7WGF2; S746 is the last residue; source: Arabidopsis nph3-7 seedlings, stably expressed (35S promoter), anti-GFP immunoprecipitate (GFP-Trap beads); not shown: GFP, N-terminal, kept
T1 sequence (looked up): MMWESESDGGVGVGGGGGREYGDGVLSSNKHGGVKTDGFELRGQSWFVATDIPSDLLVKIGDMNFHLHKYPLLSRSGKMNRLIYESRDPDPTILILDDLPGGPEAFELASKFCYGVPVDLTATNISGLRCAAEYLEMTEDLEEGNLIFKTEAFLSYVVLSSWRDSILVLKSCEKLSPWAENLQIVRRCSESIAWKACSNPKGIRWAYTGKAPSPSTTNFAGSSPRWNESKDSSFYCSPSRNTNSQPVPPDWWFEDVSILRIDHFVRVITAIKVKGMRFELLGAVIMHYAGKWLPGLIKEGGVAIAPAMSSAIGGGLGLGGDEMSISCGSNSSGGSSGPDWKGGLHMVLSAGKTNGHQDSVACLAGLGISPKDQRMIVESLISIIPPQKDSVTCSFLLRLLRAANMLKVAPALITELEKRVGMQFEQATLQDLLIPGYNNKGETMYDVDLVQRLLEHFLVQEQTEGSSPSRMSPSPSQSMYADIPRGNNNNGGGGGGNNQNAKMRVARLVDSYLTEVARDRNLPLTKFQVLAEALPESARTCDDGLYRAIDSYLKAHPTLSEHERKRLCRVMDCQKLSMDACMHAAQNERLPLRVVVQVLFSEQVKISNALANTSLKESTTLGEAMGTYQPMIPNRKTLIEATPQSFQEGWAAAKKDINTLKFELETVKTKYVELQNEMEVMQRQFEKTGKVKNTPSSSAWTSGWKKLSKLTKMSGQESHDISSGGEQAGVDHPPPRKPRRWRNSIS

[2] = target: T2, GFP:NPH3 from N. benthamiana (Arabidopsis thaliana, UniProt Q9FMF5 1-746, phosphoserine at 744 upon blue light irradiation only (α-pS744 antibody)); assay: as above; conditions: both partners purified
T2 construct: NPH3, Arabidopsis thaliana; cloned into pH7WGF2; S746 is the last residue; source: N. benthamiana leaves, transiently transformed (35S promoter), anti-GFP immunoprecipitate (GFP-Trap beads); not shown: GFP, N-terminal, kept
T2 sequence (looked up): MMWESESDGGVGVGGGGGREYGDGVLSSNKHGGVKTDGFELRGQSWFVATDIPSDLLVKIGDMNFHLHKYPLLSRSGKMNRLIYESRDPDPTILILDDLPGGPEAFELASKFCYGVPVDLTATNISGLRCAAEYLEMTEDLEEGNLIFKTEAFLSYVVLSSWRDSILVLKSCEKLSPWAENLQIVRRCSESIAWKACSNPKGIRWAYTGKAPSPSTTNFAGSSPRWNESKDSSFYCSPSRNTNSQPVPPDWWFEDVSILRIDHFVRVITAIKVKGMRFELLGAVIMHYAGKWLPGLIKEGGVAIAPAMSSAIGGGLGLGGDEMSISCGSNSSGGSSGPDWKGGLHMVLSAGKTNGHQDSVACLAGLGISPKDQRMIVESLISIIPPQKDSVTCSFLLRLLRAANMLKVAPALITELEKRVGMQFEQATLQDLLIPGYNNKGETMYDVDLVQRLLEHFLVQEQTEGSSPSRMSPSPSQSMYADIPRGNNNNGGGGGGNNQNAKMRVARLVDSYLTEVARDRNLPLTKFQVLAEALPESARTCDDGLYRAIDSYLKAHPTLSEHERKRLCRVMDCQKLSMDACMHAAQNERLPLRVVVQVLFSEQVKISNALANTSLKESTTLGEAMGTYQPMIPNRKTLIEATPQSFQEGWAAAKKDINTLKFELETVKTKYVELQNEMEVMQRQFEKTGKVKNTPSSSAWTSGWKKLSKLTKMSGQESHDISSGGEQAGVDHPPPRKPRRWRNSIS

B1: RGS(His)6-tagged Arabidopsis 14-3-3 isoform omega (natural protein, UniProt Q01525 1-259, looked up)
chain: MASGREEFVYMAKLAEQAERYEEMVEFMEKVSAAVDGDELTVEERNLLSVAYKNVIGARRASWRIISSIEQKEESRGNDDHVTAIREYRSKIETELSGICDGILKLLDSRLIPAAASGDSKVFYLKMKGDYHRYLAEFKTGQERKDAAEHTLAAYKSAQDIANAELAPTHPIRLGLALNFSVFYYEILNSPDRACNLAKQAFDEAIAELDTLGEESYKDSTLIMQLLRDNLTLWTSDMQDDAADEIKEAAAPKPTEEQQ
notes: 14-3-3 isoform omega, Arabidopsis; cDNA in the expression vector pQE-30; also called purified recombinant 14-3-3 proteins; RGS(His)6-tagged 14-3-3; source: E. coli M15, purified (Ni2+-NTA agarose, native conditions)
B1: binds [1]; binds [2].
